Substrate: T1, OCP lacking the NTE comprising the first 20 amino acids (ΔNTE), 6xHis-tagged (Synechocystis sp. PCC 6803) (UniProt P74102)
T1 sequence: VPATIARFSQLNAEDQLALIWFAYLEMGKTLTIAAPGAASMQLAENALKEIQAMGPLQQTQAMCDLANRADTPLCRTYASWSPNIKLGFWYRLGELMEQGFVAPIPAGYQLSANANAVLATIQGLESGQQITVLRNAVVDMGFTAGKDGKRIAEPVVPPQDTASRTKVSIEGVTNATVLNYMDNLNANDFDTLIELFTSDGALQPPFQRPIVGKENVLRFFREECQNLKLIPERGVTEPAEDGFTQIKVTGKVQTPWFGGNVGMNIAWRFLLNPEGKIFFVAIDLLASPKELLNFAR

B1: Fluorescence Recovery Protein (FRP), 6xHis-tagged (natural protein)
chain: MLQTAEAPWSQAETQSAHALFRKAYQRELDGLLATVQAQASQITQIDDLWKLHDFLSAKRHEIDGKYDDRQSVIIFVFAQLLKEGLVQAEELTFLAADKQSKIKALARL
- amplitude a3 (yield) of the slow component (C3) of flash-induced absorption transients at 550 nm, ΔNTE OCP + FRP (FRP to ΔNTE OCP ratio 1.6), 36 °C: 76%
- time constant t1 of the fast component (C1) of flash-induced absorption transients at 550 nm, ΔNTE OCP + FRP (FRP to ΔNTE OCP ratio 1.6), 36 °C: 70.4 µs
